Experimental findings from patent EP0138995B1, “REGULATION OF ENZYMES WHICH UTILIZE TETRAHYDROBIOPTERIN OR TETRAHYDROFOLATE COFACTORS WITH 6, 6-DISUBSTITUTED-TETRAHYDROPTERIDINES” (South Alabama Medical Science Foundation, priority 1983, dated 1984) are described below.

Substrate in series [1]: CC1(C)CNC2=NC(N)=NC(=O)C2=N1
The experiment in a line: Quinoid dihydropterin as substrate for dihydropteridine reductase (beef liver). The series is classed as biochemical.

Substrate in series [2]: CC1(c2ccccc2)CNC2=NC(N)=NC(=O)C2=N1
The description is as above. The series is classed as biochemical. The note with it: other: substrate produced by Peroxidase + H2O2; pH 7.4; 27.0 °C.

Substrate in series [3]: CC1=Nc2c(O)nc(N)nc2NC1
Described as above. The note with it: other: substrate produced by Peroxidase + H2O2; pH 7.4; 27.0 °C. The series is classed as biochemical.

Substrate in series [4]: CC1(C)CNC2=NC(N)=NC(=O)C2=N1
The experiment in a line: Quinoid dihydropterin as substrate for dihydropteridine reductase (sheep liver). The series is classed as biochemical. As to the method:
The quinoid was generated from 6,6-Me₂PH₄, as outlined previously. […] Peroxidase (6 units/ml final volume) was temperature equilibrated in 0.1 M Tris·HCl, pH 7.4, at 27° for 5 minutes. H₂O₂ (1.2 mM final concentration) was then added, followed by 6,6-Me₂PH₄. Conversion to q-6,6-Me₂PH₂, monitored at 340 nm, was complete within a few seconds. • (iii) Generation by phenylalanine hydroxylase: […] At 5 minutes, 6,6-Me₂PH₄ was introduced and monitored at 340 nm. Conversion of 6,6-Me₂PH₄ to quinoid dihydropterin was complete in 1-7 minutes, depending on the concentration. […] Reaction was then initiated with dihydropteridine reductase (0.01 units/ml). Rates were calculated from the enzyme dependent decrease in O.D. at 340 nm, using an extinction coefficient of 9.8 for the chemically synthesized substrate and 6.2 for the peroxidase- and phenylalanine-hydroxylase-containing reactions in which the pterin is maintained in the quinoid form. […] This Km was obtained regardless of the method of generation of the quinoid dihydropterin. The Vmax's were also the same for the dihydropteridine reductase catalyzed reduction of quinoid generated by any of the three methods (Table VI). Thus, the quinoid products of each procedure appear to behave equally.

Substrate in series [5]: CC1CNc2nc(N)[nH]c(=O)c2N1
In words: Phenylalanine hydroxylase cofactor assay (cofactor consumption and tyrosine formation). The class given is biochemical, Rat. The note with it: other: 1 mM phenylalanine, atmospheric oxygen, 0.1 M Tris·HCl, pH 7.4, 27°C. As to the method:
(§1) The 6,6-dimethyl substituted tetrahydropterin was tested for cofactor activity in a standard phenylalanine hydroxylase assay in which both cofactor consumption and tyrosine formation were monitored. […] An apparent Michaelis constant was determined at 1 mM phenylalanine and atmospheric oxygen with concentrations of 6,6-Me₂PH₄ ranging from 0.02-0.3 mM. The effect of a second methyl at the 6-position slightly increases the affinity for phenylalanine hydroxylase, since the apparent Km was two-thirds to three-quarters that of 6-methyl and 6,7-dimethyltetrahydropterin (Table IV). […] The maximum velocity of the reaction with 6,6-Me₂PH₄ is similar to that with the 6,7-dimethyl compound and about 6 times slower than with the natural cofactor (Table IV).

Substrate in series [6]: CC1(C)CNc2nc(N)[nH]c(=O)c2N1
The series is described as above. The class given is biochemical, Rat. The note with it: other: 1 mM phenylalanine, atmospheric oxygen, 0.1 M Tris·HCl, pH 7.4, 27°C. As for the experimental part:
as §1

[7] abbreviates: other: substrate produced by Bromine oxidation, 0.1 M Tris·HCl, pH 7.4, 27°C.
Setting [8] is: other: substrate produced by Phe hydroxylase + phe, pH 7.4, 27.0 °C.

B1: Beef Liver Dihydropteridine Reductase (Bos taurus) (protein)
chain: MAAAAGEARRVLVYGGRGALGSRCVQAFRARNWWVASIDVQENEEASANVVVKMTDSFTEQADQVTAEVGKLLGTEKVDAILCVAGGWAGGNAKSKSLFKNCDLMWKQSVWTSTISSHLATKHLKEGGLLTLAGARAALDGTPGMIGYGMAKAAVHQLCQSLAGKSSGLPPGAAAVALLPVTLDTPVNRKSMPEADFSSWTPLEFLVETFHDWITEKNRPSSGSLIQVVTTEGKTELTAASP
notes: from tissue; host or cells: beef liver
In the case of B1, the Km is 400 µM in series [1] (setting [7]); 400 µM in series [1] (other: substrate produced by Peroxidase + H2O2, pH 7.4, 27.0 °C); 400 µM in series [1] (setting [8]); 70 µM in series [2]; 30 µM in series [3].

B2: Sheep Liver Dihydropteridine Reductase (Ovis aries) (protein)
chain: WVASIDVQENEEASANVVVKMTDSFTEQADQVTAEVGELLGTEKVDAILCVAGGWAGGNAKSKSLFKNCDLMWKQSVWTSTISSHLATKHLKEGGLLTLAGARAALDGTPGMIGYGMAKAAVHQLCRSLAGKNSGLPPGAAAVALLPVTLDTPVNRKSMPEADFSSWTPLEFLVETFHDWITEKNRPSSGSLIQVVTTEGKTELTTASL
In the case of B2, the Km in series [4] (setting [7]) and in series [4] (setting [8]) was 400 µM in each case.

B3: Rat Liver Phenylalanine Hydroxylase (Rattus norvegicus) (protein)
chain: MAAVVLENGVLSRKLSDFGQETSYIEDNSNQNGAISLIFSLKEEVGALAKVLRLFEENDINLTHIESRPSRLNKDEYEFFTYLDKRTKPVLGSIIKSLRNDIGATVHELSRDKEKNTVPWFPRTIQELDRFANQILSYGAELDADHPGFKDPVYRARRKQFADIAYNYRHGQPIPRVEYTEEEKQTWGTVFRTLKALYKTHACYEHNHIFPLLEKYCGFREDNIPQLEDVSQFLQTCTGFRLRPVAGLLSSRDFLGGLAFRVFHCTQYIRHGSKPMYTPEPDICHELLGHVPLFSDRSFAQFSQEIGLASLGAPDEYIEKLATIYWFTVEFGLCKEGDSIKAYGAGLLSSFGELQYCLSDKPKLLPLELEKTACQEYSVTEFQPLYYVAESFSDAKEKVRTFAATIPRPFSVRYDPYTQRVEVLDNTQQLKILADSINSEVGILCNALQKIKS
notes: Cofactor for Rat Liver Phenylalanine Hydroxylase; from tissue; host or cells: rat liver
With B3, the Michaelis constant (Km) in series [5] came out at 100 ± 20 µM; in series [6] it was 66 ± 10 µM.
